Assay results from PMC6719045, “Analysis of IFITM-IFITM Interactions by a Flow Cytometry-Based FRET Assay” (International Journal of Molecular Sciences, 2019).

Molecular target: T1, IFITM3-wt fused to SCFP or SYFP (interferon-induced transmembrane protein 3) (UniProt Q01628 1-133)
T1 construct: interferon-induced transmembrane protein 3 (IFITM3), wild type; One molecule stands for both FRET copies (SCFP3A fusion and SYFP2 fusion); also called SxFP-IFITM3; IFTIM3; source: 293T, transiently transfected, in cells; not shown: SCFP3A or SYFP2, N-terminal, kept
T1 sequence (Q01628 whole entry, the tested form may be a part): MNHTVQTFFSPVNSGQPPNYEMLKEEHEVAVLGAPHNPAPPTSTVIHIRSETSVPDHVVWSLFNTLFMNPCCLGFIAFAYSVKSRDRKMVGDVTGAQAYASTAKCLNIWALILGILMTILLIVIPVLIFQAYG
Test: FRET or BRET; FACS-FRET in 293T cells at 48 h post transfection with titrated amounts of plasmids, total DNA kept constant with empty pCAGGS (Figure 2D)
Conditions: partners not purified

B1: IFITM1 fused to SCFP or SYFP (interferon-induced transmembrane protein 1) (natural protein, UniProt P13164 1-125, looked up)
chain: MHKEEHEVAVLGPPPSTILPRSTVINIHSETSVPDHVVWSLFNTLFLNWCCLGFIAFAYSVKSRDRKMVGDVTGAQAYASTAKCLNIWALILGILMTIGFILLLVFGSVTVYHIMLQIIQEKRGY
notes: interferon-induced transmembrane protein 1 (IFITM1); One molecule stands for both FRET copies: one carries SCFP3A (donor), the other SYFP2 (acceptor); also called SCFP3A-IFITM1; SYFP2-IFITM1; source: 293T, transiently transfected, in cells; not shown: SCFP3A or SYFP2, N-terminal, kept
For B1, the “percent of FRET-positive cells” value was ~20%.
